Assay results from patent US20160145598.

Molecular target: thrombin

B1: FX-control+ of family 2 (insertion of the thrombin recognition site on fibrinogen = fibrinopeptide A; comparative) (protein)
chain: ANSFLEEMKKGHLERECMEETCSYEEAREVFEDSDKTNEFWNKYKDGDQCETSPCQNQGKCKDGLGEYTCTCLEGFEGKNCELFTRKLCSLDNGDCDQFCHEEQNSVVCSCARGYTLADNGKACIPTGPYPCGKQTLERRKRSVAQATSSSGEAPDSITWKPYDAADLDPTENPFDLLDFNQTQPERGDNNLTRDFLAEGGGVRIVGGQECKDGECPWQALLINEENEGFCGGTILSEFYILTAAHCLYQAKRFKVRVGDRNTEQEEGGEAVHEVEVVIKHNRFTKETYDFDIAVLRLKTPITFRMNVAPACLPERDWAESTLMTQKTGIVSGFGRTHEKGRQSTRLKMLEVPYVDRNSCKLSSSFIITQNMFCAGYDTKQEDACQGDSGGPHVTRFKDTYFVTGIVSWGEGCARKGKYGIYTKVTAFLKWIDRSMKTRGLPKAKSHAPEVITSSPLKEDQVDPRLIDGK
- appearance of FXa after incubation with thrombin (Pefachrome FXa8595 hydrolysis at 405 nm): FX-IIa and FX-control+ are capable of being activated by thrombin and of releasing FXa
